Reference: patent publication US20250361296A1

Assays:
Test in all cases: flow cytometry, CHO-S cells expressing the target
[1] = target: Macaca fascicularis (crab-eating macaque) SIGLEC15 on CHO-S-fasSIGLEC15 cells (Macaca fascicularis (crab-eating macaque))
[2] = target: dog SIGLEC15 on CHO-S-dSIGLEC15 cells (dog)
[3] = target: human SIGLEC15 on CHO-S-hSIGLEC15 cells (human) (UniProt Q6ZMC9)
[4] = target: mouse SIGLEC15 on CHO-S-mSIGLEC15 cells (mouse)
Chain of mouse SIGLEC15 on CHO-S-mSIGLEC15 cells (mouse) (chain, as listed by the source limits assumed): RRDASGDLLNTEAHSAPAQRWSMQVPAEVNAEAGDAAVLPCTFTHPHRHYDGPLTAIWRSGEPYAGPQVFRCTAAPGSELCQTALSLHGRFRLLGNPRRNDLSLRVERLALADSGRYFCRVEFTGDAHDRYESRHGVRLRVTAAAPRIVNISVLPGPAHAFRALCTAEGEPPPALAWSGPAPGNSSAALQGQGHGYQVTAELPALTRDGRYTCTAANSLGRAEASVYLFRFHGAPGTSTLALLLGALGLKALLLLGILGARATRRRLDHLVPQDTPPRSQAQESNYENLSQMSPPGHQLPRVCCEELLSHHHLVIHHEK

Chain of dog SIGLEC15 on CHO-S-dSIGLEC15 cells (dog) (chain, as listed by the source limits assumed): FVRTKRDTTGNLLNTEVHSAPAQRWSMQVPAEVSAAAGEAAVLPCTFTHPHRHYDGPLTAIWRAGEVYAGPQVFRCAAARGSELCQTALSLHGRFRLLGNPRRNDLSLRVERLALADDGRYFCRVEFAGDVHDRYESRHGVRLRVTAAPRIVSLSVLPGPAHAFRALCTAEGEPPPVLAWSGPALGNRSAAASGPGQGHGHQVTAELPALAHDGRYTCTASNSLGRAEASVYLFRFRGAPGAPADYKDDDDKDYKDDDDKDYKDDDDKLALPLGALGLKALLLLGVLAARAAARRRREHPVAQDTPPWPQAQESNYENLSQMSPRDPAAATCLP
Chain of human SIGLEC15 on CHO-S-hSIGLEC15 cells (human) (Q6ZMC9 20-328 limits assumed): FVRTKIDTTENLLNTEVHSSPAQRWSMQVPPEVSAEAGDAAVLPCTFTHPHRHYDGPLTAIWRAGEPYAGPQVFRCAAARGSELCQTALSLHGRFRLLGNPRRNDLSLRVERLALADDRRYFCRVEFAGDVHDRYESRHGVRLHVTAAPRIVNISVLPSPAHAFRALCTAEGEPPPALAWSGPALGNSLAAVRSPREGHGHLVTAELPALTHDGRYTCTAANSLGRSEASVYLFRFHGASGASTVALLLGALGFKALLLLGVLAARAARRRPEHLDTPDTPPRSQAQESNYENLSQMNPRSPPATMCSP

Percentage of Positive Cells [1] [%] | Percentage of Positive Cells [2] [%] | Percentage of Positive Cells [3] [%] | Percentage of Positive Cells [4] [%] | Substance
0.2 | 0.6 | 0.1 | 0.1 | NC
0 | 0.7 | 0 | 0.3 | NC + secondary antibody
